Results as given in patent US9260500B2, “Peptide and use thereof” (Takeda Pharmaceutical Company Limited, priority 2009, dated 2016).
Non-standard residues stand in square brackets, D forms with d. No end group written: not given here. *: point of attachment. 4‑Guanidinomethylbenzoyl = N=C(N)NCc1ccc(C(=O)*)cc1; 1Nal = N[C@@H](Cc1cccc2ccccc12)C(=O)O; hArg = N=C(N)NCCCC[C@H](N)C(=O)O; 4Pal = N[C@@H](Cc1ccncc1)C(=O)O; d(pGlu) = O=C1CC[C@H](C(=O)O)N1; Cha = N[C@@H](CC1CCCCC1)C(=O)O; NMeS = CN[C@@H](CO)C(=O)O; hSer = N[C@@H](CCO)C(=O)O; Iva = CC[C@](C)(N)C(=O)O; Nle = CCCC[C@H](N)C(=O)O; Nva = CCC[C@H](N)C(=O)O; Abu = CC[C@H](N)C(=O)O; Nleu = CC(C)CNCC(=O)O; Aib = CC(C)(N)C(=O)O; Bz = O=C(c1ccccc1)*

What was measured:
human Y2 receptor [1] = target: T1, human Y2 receptor (Homo sapiens, UniProt P49146); assay: Receptor Binding Assay (RBA) for Human Y2, [125I]-PYY displacement on hY2R/CHO membrane fraction; conditions: IC50 of test compound/IC50 of PYY(3-36) (PYY(3-36) taken as 1)
T1 construct: expressed in transfected cells; membrane fraction
T1 sequence (P49146 1-381): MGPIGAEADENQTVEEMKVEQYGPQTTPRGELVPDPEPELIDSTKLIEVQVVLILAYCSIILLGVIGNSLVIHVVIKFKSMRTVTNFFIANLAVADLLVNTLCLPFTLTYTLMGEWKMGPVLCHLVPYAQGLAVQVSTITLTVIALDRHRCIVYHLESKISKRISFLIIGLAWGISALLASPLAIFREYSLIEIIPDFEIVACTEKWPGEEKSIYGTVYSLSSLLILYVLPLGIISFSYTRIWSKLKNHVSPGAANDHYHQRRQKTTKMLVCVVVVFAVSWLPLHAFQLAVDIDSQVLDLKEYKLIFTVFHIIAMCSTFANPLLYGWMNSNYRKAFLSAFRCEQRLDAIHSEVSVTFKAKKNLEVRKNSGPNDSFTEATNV
How it was run: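 Read-out is [125I]-PYY displacement from membranes of CHO/dhfr− cells stably transfected with human Y2R. Membranes were obtained by disrupting cells in a buffer of 10 mM NaHCO3, 5 mM EDTA and protease inhibitors.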

human Y2 receptor [2] = target: T1, human Y2 receptor; assay: Human Y2 Receptor G Protein Binding Assay (GBA), [35S]GTPγS; format: biochemical; conditions: EC50 of test compound/EC50 of PYY(3-36) (PYY3-36 taken as 1), hY2R/CHO membrane fraction
How it was run: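 Agonism measured as [35S]GTPγS binding, read by GF/C filtration and scintillation counting after 120 min at room temperature, using human Y2 membranes at 1 μg protein/mL in pH 7.4 Tris/MgCl2/NaCl/GDP buffer. Compound serially diluted 100 μM–1 nM; EC50 normalized to PYY(3-36) (ratio = compound/PYY).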

RBA IC50 Ratio (human Y2 receptor [1])	GBA EC50 Ratio (human Y2 receptor [2])	Substance
13	8.6	Benzoyl-[Nva27, Cha28,36, Aib31]-PYY(25-36) (Bz-RH[Nva][Cha]NL[Aib]TRQR[Cha]-NH2; SMILES CCC[C@H](NC(=O)[C@H](Cc1c[nH]cn1)NC(=O)[C@H](CCCNC(=N)N)NC(=O)c1ccccc1)C(=O)N[C@@H](CC1CCCCC1)C(=O)N[C@@H](CC(N)=O)C(=O)N[C@@H](CC(C)C)C(=O)NC(C)(C)C(=O)N[C@H](C(=O)N[C@@H](CCCNC(=N)N)C(=O)N[C@@H](CCC(N)=O)C(=O)N[C@@H](CCCNC(=N)N)C(=O)N[C@@H](CC1CCCCC1)C(N)=O)[C@@H](C)O) [compound No. 103]
15	11	[D-Ser23, Abu26, Cha27,28,36, Aib31]-PYY(23-36) ([dS]LR[Abu][Cha][Cha]NL[Aib]TRQR[Cha]-NH2; N-terminus assumed; SMILES CC[C@H](NC(=O)[C@H](CCCNC(=N)N)NC(=O)[C@H](CC(C)C)NC(=O)[C@H](N)CO)C(=O)N[C@@H](CC1CCCCC1)C(=O)N[C@@H](CC1CCCCC1)C(=O)N[C@@H](CC(N)=O)C(=O)N[C@@H](CC(C)C)C(=O)NC(C)(C)C(=O)N[C@H](C(=O)N[C@@H](CCCNC(=N)N)C(=O)N[C@@H](CCC(N)=O)C(=O)N[C@@H](CCCNC(=N)N)C(=O)N[C@@H](CC1CCCCC1)C(N)=O)[C@@H](C)O) [compound No. 85]
12	7.8	Ac-[MeSer23, D-Pro24, Cha27,28,36, Aib31]-PYY(22-36) (Ac-A[NMeS][dP]RH[Cha][Cha]NL[Aib]TRQR[Cha]-NH2; SMILES CC(=O)N[C@@H](C)C(=O)N(C)[C@@H](CO)C(=O)N1CCC[C@@H]1C(=O)N[C@@H](CCCNC(=N)N)C(=O)N[C@@H](Cc1c[nH]cn1)C(=O)N[C@@H](CC1CCCCC1)C(=O)N[C@@H](CC1CCCCC1)C(=O)N[C@@H](CC(N)=O)C(=O)N[C@@H](CC(C)C)C(=O)NC(C)(C)C(=O)N[C@H](C(=O)N[C@@H](CCCNC(=N)N)C(=O)N[C@@H](CCC(N)=O)C(=O)N[C@@H](CCCNC(=N)N)C(=O)N[C@@H](CC1CCCCC1)C(N)=O)[C@@H](C)O) [compound No. 129]
20	8.4	Ac-[N(iBu)Gly24, Cha27,28,36, Aib31]-PYY(23-36) (Ac-S[Nleu]RH[Cha][Cha]NL[Aib]TRQR[Cha]-NH2; SMILES CC(=O)N[C@@H](CO)C(=O)N(CC(=O)N[C@@H](CCCNC(=N)N)C(=O)N[C@@H](Cc1c[nH]cn1)C(=O)N[C@@H](CC1CCCCC1)C(=O)N[C@@H](CC1CCCCC1)C(=O)N[C@@H](CC(N)=O)C(=O)N[C@@H](CC(C)C)C(=O)NC(C)(C)C(=O)N[C@H](C(=O)N[C@@H](CCCNC(=N)N)C(=O)N[C@@H](CCC(N)=O)C(=O)N[C@@H](CCCNC(=N)N)C(=O)N[C@@H](CC1CCCCC1)C(N)=O)[C@@H](C)O)CC(C)C) [compound No. 108]
5.3	3.5	Ac-[Glu23, D-Pro24, Pya(4)26, Cha27,36, Aib28,31, Lys30]-PYY(22-36) (Ac-AE[dP]R[4Pal][Cha][Aib]NK[Aib]TRQR[Cha]-NH2; SMILES CC(=O)N[C@@H](C)C(=O)N[C@@H](CCC(=O)O)C(=O)N1CCC[C@@H]1C(=O)N[C@@H](CCCNC(=N)N)C(=O)N[C@@H](Cc1ccncc1)C(=O)N[C@@H](CC1CCCCC1)C(=O)NC(C)(C)C(=O)N[C@@H](CC(N)=O)C(=O)N[C@@H](CCCCN)C(=O)NC(C)(C)C(=O)N[C@H](C(=O)N[C@@H](CCCNC(=N)N)C(=O)N[C@@H](CCC(N)=O)C(=O)N[C@@H](CCCNC(=N)N)C(=O)N[C@@H](CC1CCCCC1)C(N)=O)[C@@H](C)O) [compound No. 220]
2	1.1	[D-pGlu24, Pya(4)26, Cha27,36, Aib28,31, Lys30]-PYY(24-36) ([d(pGlu)]R[4Pal][Cha][Aib]NK[Aib]TRQR[Cha]-NH2; SMILES C[C@@H](O)[C@H](NC(=O)C(C)(C)NC(=O)[C@H](CCCCN)NC(=O)[C@H](CC(N)=O)NC(=O)C(C)(C)NC(=O)[C@H](CC1CCCCC1)NC(=O)[C@H](Cc1ccncc1)NC(=O)[C@H](CCCNC(=N)N)NC(=O)[C@H]1CCC(=O)N1)C(=O)N[C@@H](CCCNC(=N)N)C(=O)N[C@@H](CCC(N)=O)C(=O)N[C@@H](CCCNC(=N)N)C(=O)N[C@@H](CC1CCCCC1)C(N)=O) [compound No. 250]

Second part, the substance before the results:

Substance	RBA IC50 Ratio (human Y2 receptor [1])	GBA EC50 Ratio (human Y2 receptor [2])
4-Guanidinomethylbenzoyl-[Iva25, Cha27,36, Aib28,31, Lys30]-PYY(25-36) ({4‑Guanidinomethylbenzoyl}-[Iva]H[Cha][Aib]NK[Aib]TRQR[Cha]-NH2; SMILES CC[C@](C)(NC(=O)c1ccc(CNC(=N)N)cc1)C(=O)N[C@@H](Cc1c[nH]cn1)C(=O)N[C@@H](CC1CCCCC1)C(=O)NC(C)(C)C(=O)N[C@@H](CC(N)=O)C(=O)N[C@@H](CCCCN)C(=O)NC(C)(C)C(=O)N[C@H](C(=O)N[C@@H](CCCNC(=N)N)C(=O)N[C@@H](CCC(N)=O)C(=O)N[C@@H](CCCNC(=N)N)C(=O)N[C@@H](CC1CCCCC1)C(N)=O)[C@@H](C)O) [compound No. 252]	6.3	2.8
Ac-[D-Pro24, Pya(4)26, Cha27,36, Aib28, Lys30, Iva31]-PYY(23-36) (Ac-S[dP]R[4Pal][Cha][Aib]NK[Iva]TRQR[Cha]-NH2; SMILES CC[C@](C)(NC(=O)[C@H](CCCCN)NC(=O)[C@H](CC(N)=O)NC(=O)C(C)(C)NC(=O)[C@H](CC1CCCCC1)NC(=O)[C@H](Cc1ccncc1)NC(=O)[C@H](CCCNC(=N)N)NC(=O)[C@H]1CCCN1C(=O)[C@H](CO)NC(C)=O)C(=O)N[C@H](C(=O)N[C@@H](CCCNC(=N)N)C(=O)N[C@@H](CCC(N)=O)C(=O)N[C@@H](CCCNC(=N)N)C(=O)N[C@@H](CC1CCCCC1)C(N)=O)[C@@H](C)O) [compound No. 231]	0.85	2.1
Benzoyl-[Cha27,36, Nal(1)28, Aib31]-PYY(25-36) (Bz-RH[Cha][1Nal]NL[Aib]TRQR[Cha]-NH2; SMILES CC(C)C[C@H](NC(=O)[C@H](CC(N)=O)NC(=O)[C@H](Cc1cccc2ccccc12)NC(=O)[C@H](CC1CCCCC1)NC(=O)[C@H](Cc1c[nH]cn1)NC(=O)[C@H](CCCNC(=N)N)NC(=O)c1ccccc1)C(=O)NC(C)(C)C(=O)N[C@H](C(=O)N[C@@H](CCCNC(=N)N)C(=O)N[C@@H](CCC(N)=O)C(=O)N[C@@H](CCCNC(=N)N)C(=O)N[C@@H](CC1CCCCC1)C(N)=O)[C@@H](C)O) [compound No. 63]	34	25
Ac-[D-Pro24, Aib26,28,31, Cha27,36, Lys30]-PYY(23-36) (Ac-S[dP]R[Aib][Cha][Aib]NK[Aib]TRQR[Cha]-NH2; SMILES CC(=O)N[C@@H](CO)C(=O)N1CCC[C@@H]1C(=O)N[C@@H](CCCNC(=N)N)C(=O)NC(C)(C)C(=O)N[C@@H](CC1CCCCC1)C(=O)NC(C)(C)C(=O)N[C@@H](CC(N)=O)C(=O)N[C@@H](CCCCN)C(=O)NC(C)(C)C(=O)N[C@H](C(=O)N[C@@H](CCCNC(=N)N)C(=O)N[C@@H](CCC(N)=O)C(=O)N[C@@H](CCCNC(=N)N)C(=O)N[C@@H](CC1CCCCC1)C(N)=O)[C@@H](C)O) [compound No. 235]	2.1	2.7
Ac-[D-Pro24, Pya(4)26, Cha27,36, Aib28,31, Hse30]-PYY(23-36) (Ac-S[dP]R[4Pal][Cha][Aib]N[hSer][Aib]TRQR[Cha]-NH2; SMILES CC(=O)N[C@@H](CO)C(=O)N1CCC[C@@H]1C(=O)N[C@@H](CCCNC(=N)N)C(=O)N[C@@H](Cc1ccncc1)C(=O)N[C@@H](CC1CCCCC1)C(=O)NC(C)(C)C(=O)N[C@@H](CC(N)=O)C(=O)N[C@@H](CCO)C(=O)NC(C)(C)C(=O)N[C@H](C(=O)N[C@@H](CCCNC(=N)N)C(=O)N[C@@H](CCC(N)=O)C(=O)N[C@@H](CCCNC(=N)N)C(=O)N[C@@H](CC1CCCCC1)C(N)=O)[C@@H](C)O) [compound No. 265]	5.8	5.7
Ac-[D-Pro24, Har25, Cha27,36, Aib28,31, Lys30]-PYY(23-36) (Ac-S[dP][hArg]H[Cha][Aib]NK[Aib]TRQR[Cha]-NH2; SMILES CC(=O)N[C@@H](CO)C(=O)N1CCC[C@@H]1C(=O)N[C@@H](CCCCNC(=N)N)C(=O)N[C@@H](Cc1c[nH]cn1)C(=O)N[C@@H](CC1CCCCC1)C(=O)NC(C)(C)C(=O)N[C@@H](CC(N)=O)C(=O)N[C@@H](CCCCN)C(=O)NC(C)(C)C(=O)N[C@H](C(=O)N[C@@H](CCCNC(=N)N)C(=O)N[C@@H](CCC(N)=O)C(=O)N[C@@H](CCCNC(=N)N)C(=O)N[C@@H](CC1CCCCC1)C(N)=O)[C@@H](C)O) [compound No. 291]	1.2	2.7
Ac-[D-Pro24, Nle25, Pya(4)26, Cha27,28,36, Aib31]-PYY(23-36) (Ac-S[dP][Nle][4Pal][Cha][Cha]NL[Aib]TRQR[Cha]-NH2; SMILES CCCC[C@H](NC(=O)[C@H]1CCCN1C(=O)[C@H](CO)NC(C)=O)C(=O)N[C@@H](Cc1ccncc1)C(=O)N[C@@H](CC1CCCCC1)C(=O)N[C@@H](CC1CCCCC1)C(=O)N[C@@H](CC(N)=O)C(=O)N[C@@H](CC(C)C)C(=O)NC(C)(C)C(=O)N[C@H](C(=O)N[C@@H](CCCNC(=N)N)C(=O)N[C@@H](CCC(N)=O)C(=O)N[C@@H](CCCNC(=N)N)C(=O)N[C@@H](CC1CCCCC1)C(N)=O)[C@@H](C)O) [compound No. 140]	20	2.6
